# Test system: MMP3 resistant rAgrin (SEQ ID NO: 19)
substance,measurement,value
MMP3,MMP3 degradation,is resistant to MMP3 degradation
same,degradation of Agrin in the presence of increasing amounts of MMP3 for 24 hours,mutation of the MMP-3 cleavage site reduces degradation of Agrin (polypeptide defined by SEQ ID NO: 19)
